Experimental findings from patent US20200369755A1 (PROTHENA BIOSCIENCES, published 2020) are described below.

Substitutions are numbered along the chain they refer to. Names and notes keep the numbering of the source.

The target in assay [1] is biotinylated recombinant tau (UniProt P10636-6 1-383, limits assumed, biotinylated). Briefly: competition ELISA: inhibition of biotinylated tau binding to plate-bound low molecular weight heparin. The procedure:
To test the ability of murine and humanized 3D6 variants to interrupt tau interaction with heparin, ELISA plates coated with low molecular weight heparin were first blocked with 2% BSA in PBS for 2h at room temperature. Plates were washed with TBST. After blocking, plates were incubated with biotinylated recombinant tau along with indicated concentrations of unlabeled antibody in 1% BSA/PBS for one hour at room temperature. Plates were again washed, and then incubated with streptavidin-HRP in 0.1% BSA/PBS for 45 min. Plates were then washed and developed with OPD, and absorbance was measured at 490 nm. Inhibition curves were analyzed using a 4-parameter log fit.

Assay [2] has as its target T1, mixed fibrils of 3-repeat and 4-repeat tau (UniProt P10636 1-352; P10636 1-383, limits assumed).
T1 construct: Made by seeded growth of 3-repeat and 4-repeat tau; also called fibrils containing both 3R and 4R tau
In words: ELISA on plates coated with preformed mixed 3R/4R tau fibrils, biotinylated antibody, streptavidin-HRP, OPD, A490 [binding to mixed fibrils]. As to the method: (§1) ELISA plates were coated with preformed fibrils (overnight at 4° C. in 50 mM carbonate-bicarbonate buffer, pH 9.6), washed, and blocked with 1% BSA in PBS. After blocking, plates were incubated with the indicated concentrations of biotinylated primary antibody in 0.1% BSA/PBS for 1h at room temperature. Plates were washed, and then incubated with streptavidin-HRP in 0.1% BSA/PBS for 45 min. Plates were then washed and developed with OPD, and absorbance was measured at 490 nm. Binding curves were analyzed using a 4-parameter log fit.
(In general: In an ELISA, binding on a coated surface is turned into a signal by an enzyme label.)

The target in assay [3] is T2, recombinant human 4R0N tau (human, UniProt P10636 2-758).
T2 construct: also called P10636-6
Briefly: SPR, Biacore T200, antibody captured on anti-human Fc, tau as analyte, 1:1 fit. As to the method:
Target binding analysis was performed using a Biacore T200 to compare the binding affinity of humanized 3D6 variants to recombinant human 4R0N tau. Anti-Human Fc antibody was immobilized on sensor chip CM3 via amine coupling, and humanized 3D6 variants were captured to equivalent levels. […] Data was blank subtracted to both an irrelevant sensor not containing antibody and 0 nM analyte concentration. Analysis was performed using a global 1:1 fit with Biacore Evaluation software.

The target of the next assay is T3, 4R tau fibrils (UniProt P10636-6 1-383, limits assumed).
T3 construct: Fibrils pelleted at 100,000 x g and coated on ELISA plates; also called fibrillar tau; recombinant tau fibrils of 4-repeat tau
In words: ELISA, biotinylated antibody on plate-coated preformed fibrils, 4-parameter fit. As to the method:
as §1

A further assay deals with recombinant human tau (human, UniProt P10636 1-383). Briefly: SPR (Biacore T200): antibody captured on an anti-mouse chip, recombinant human tau 10-0.14 nM as analyte, global 1:1 fit. As to the method:
Methods: SPR analysis was performed using a Biacore T200 to determine the binding kinetics of murine antibodies to recombinant human tau. To prepare a sensor surface, anti-mouse antibody (GE Life Sciences) was immobilized on sensor chip CM5 via amine coupling, and antibody was captured at a level to ensure maximum binding of 50 RU. Various concentrations of recombinant tau ranging from 10-0.14 nM were passed over the captured ligand at a flow rate of 50 μL/min in running buffer (HBS+0.05% P-20, 1 mg/mL BSA), for 180 sec association and 900 sec dissociation. Data were double-referenced to both an irrelevant sensor not containing antibody ligand, and 0 nM analyte concentration to account for the dissociation of ligand from the capture moiety. Data was then analyzed using a global 1:1 fit.

The term IC50 denotes the concentration at which inhibition is half-maximal. What is called EC50 (read off the curve) is the concentration giving half of the maximal effect. Lower therefore signals greater potency. As a reminder, the Kd is the equilibrium constant for the complex coming apart. As a reminder, the koff is the rate constant with which the complex falls apart. The kon is the rate constant with which the complex forms. By EC50 is commonly meant the concentration that produces a half-maximal response. Low values mean an effect from little substance, high ones a need for much substance.

T2 sequence (P10636 other isoform, or with tags, fused parts or gaps limits assumed): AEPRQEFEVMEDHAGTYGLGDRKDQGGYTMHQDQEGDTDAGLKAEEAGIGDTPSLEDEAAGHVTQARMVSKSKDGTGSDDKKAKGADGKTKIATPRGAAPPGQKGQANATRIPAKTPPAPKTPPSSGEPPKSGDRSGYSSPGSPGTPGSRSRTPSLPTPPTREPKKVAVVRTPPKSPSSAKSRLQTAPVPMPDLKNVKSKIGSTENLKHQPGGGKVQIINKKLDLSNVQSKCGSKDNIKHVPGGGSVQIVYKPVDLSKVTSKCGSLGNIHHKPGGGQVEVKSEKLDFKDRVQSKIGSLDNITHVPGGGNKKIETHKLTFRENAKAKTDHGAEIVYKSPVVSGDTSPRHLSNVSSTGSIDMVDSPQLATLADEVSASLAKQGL
recombinant human tau, sequence (P10636 other isoform, or with tags, fused parts or gaps): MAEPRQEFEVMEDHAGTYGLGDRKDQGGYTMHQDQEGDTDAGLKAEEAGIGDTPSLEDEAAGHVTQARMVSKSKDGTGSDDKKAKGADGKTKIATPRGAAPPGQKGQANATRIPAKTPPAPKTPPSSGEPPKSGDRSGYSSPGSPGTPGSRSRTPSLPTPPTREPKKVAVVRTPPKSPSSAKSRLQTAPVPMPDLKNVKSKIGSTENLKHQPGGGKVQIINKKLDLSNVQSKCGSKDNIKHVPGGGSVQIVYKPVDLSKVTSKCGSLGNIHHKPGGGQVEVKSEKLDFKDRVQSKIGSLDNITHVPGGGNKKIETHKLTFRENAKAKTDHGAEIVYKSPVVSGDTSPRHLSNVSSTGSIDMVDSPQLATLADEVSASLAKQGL
T3 sequence (P10636 other isoform, or with tags, fused parts or gaps limits assumed): as the sequence (P10636 other isoform, or with tags, fused parts or gaps) above
biotinylated recombinant tau, sequence (P10636 other isoform, or with tags, fused parts or gaps limits assumed): as the sequence (P10636 other isoform, or with tags, fused parts or gaps) above
T1 sequence (P10636 other isoform, or with tags, fused parts or gaps limits assumed, chain 1 of 2): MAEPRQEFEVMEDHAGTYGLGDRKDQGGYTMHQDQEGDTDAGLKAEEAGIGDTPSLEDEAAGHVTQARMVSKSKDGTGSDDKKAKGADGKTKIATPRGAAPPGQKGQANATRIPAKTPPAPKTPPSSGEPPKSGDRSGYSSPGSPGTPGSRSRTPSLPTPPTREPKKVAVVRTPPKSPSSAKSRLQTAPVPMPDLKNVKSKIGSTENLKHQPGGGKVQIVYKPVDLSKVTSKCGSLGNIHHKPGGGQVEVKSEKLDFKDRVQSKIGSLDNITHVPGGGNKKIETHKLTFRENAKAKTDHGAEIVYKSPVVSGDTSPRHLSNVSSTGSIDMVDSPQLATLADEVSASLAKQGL
T1 sequence (P10636 other isoform, or with tags, fused parts or gaps limits assumed, chain 2 of 2): as the sequence (P10636 other isoform, or with tags, fused parts or gaps) above

B1: hu3D6VHv1bA11/hu3D6VLv2 (antibody, V domains shown)
VH: EVQLVQSGAEVVKPGATVKISCKASGFNIKDYYLHWVRQRPGQGLEWIGWIDPENGDTVYDPKFQGRATITADTSTDTAYLQLGSLTSEDTAVYFCSTLDFWGQGTLVTVSS
VL: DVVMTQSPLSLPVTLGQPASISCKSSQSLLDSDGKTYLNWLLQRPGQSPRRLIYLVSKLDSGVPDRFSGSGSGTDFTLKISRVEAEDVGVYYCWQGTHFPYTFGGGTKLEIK
notes: Humanized antibody expressed in 293 cells, captured by anti-human Fc; also called parental hu3D6VHv1bA11/hu3D6VLv2; h3D6Hu5 heavy chain variable region
On to B1, for which the half-maximal inhibitory concentration (IC50) in assay [1] worked out at 0.565 nM. The “EC50 (read off the curve)” value in assay [2] was around 0.9 nM. Besides, in assay [3], the Kd came out at 0.181 nM, the koff was 0.00074 s⁻¹ and the on-rate constant (kon) turned out to be 4.17e+06 M⁻¹ s⁻¹. This molecule gave an EC50 with 4R tau fibrils of 0.237 nM.

B2: hu3D6VHv1bA11/L2-DIM9 (antibody, V domains shown)
VH: B1 VH
VL: DVVMTQSPLSLPVTLGQPASISCKSSQSLLDSDGKTYLNWLLQRPGQSPRRLIYLVGKLDSGVPDRFSGSGSGTDFTLKISRVEAEDVGVYYCWQGTHFPYTFGGGTKLEIK
notes: Humanized antibody with human Fc; also called hu3D6VHv1bA11 / hu3D6VLv2 S52G
As for B2, in assay [3], the Kd came out at 0.16 nM, the koff stood at 0.00074 s⁻¹ and the on-rate constant (kon) stood at 4.63e+06 M⁻¹ s⁻¹.

B3: h3D6VHvb8/L2-DIM6 (antibody, V domains shown)
VH: B1 VH with D61E
VL: B2 VL with L42Q, L59D
notes: Humanized antibody with human Fc
Regarding B3, in assay [3], the Kd was 1.5 nM and the off-rate (koff) stood at 5.67 s⁻¹.

B4: hu3D6VHv1bA11/L2-DIM14 (antibody, V domains shown)
VH: B1 VH
VL: B2 VL with L42Q, L55D, G57S
notes: as for B3
In the case of B4, the Kd in assay [3] was 1.53 nM.

B5: hu3D6VHv1bA11/L2-DIM5 (antibody, V domains shown)
VH: B1 VH
VL: B2 VL with L42Q, L59T
notes: as for B3
Take B5: in assay [3], the dissociation constant (Kd) was 0.183 nM, the koff stood at 0.000735 s⁻¹ and the kon stood at 4.02e+06 M⁻¹ s⁻¹.

B6: hu3D6VHv1bA11/L2-DIM20 (antibody, V domains shown)
VH: B1 VH
VL: B2 VL with L42Q, L55E, G57S, L59R
notes: as for B3
Consider B6, for which, in assay [3], the Kd is 36 nM, the koff is 0.00935 s⁻¹ and the association rate constant (kon) amounted to 260000 M⁻¹ s⁻¹.

B7: hu3D6VHv1bA11/L2-DIM3 (antibody, V domains shown)
VH: B1 VH
VL: B2 VL with L42Q, L59G
notes: as for B3
For B7, in assay [3], the Kd was 0.199 nM, the koff was 0.000781 s⁻¹ and the on-rate (kon) was found to be 3.93e+06 M⁻¹ s⁻¹.

B8: hu3D6VHv1bA11/L2-DIM6 (antibody, V domains shown)
VH: B1 VH
VL: B2 VL with L42Q, L59D
notes: as for B3
With B8, in assay [3], the Kd is 1.49 nM, the dissociation rate constant (koff) was determined as 0.00461 s⁻¹ and the kon is 3.08e+06 M⁻¹ s⁻¹.

B9: hu3D6VHv1bA11/L2-DIM22 (antibody, V domains shown)
VH: B1 VH
VL: B2 VL with L55G, G57S
notes: Humanized antibody with human Fc; also called hu3D6VHv1bA11 / hu3D6VLv2 L50G
B9: in assay [3], the Kd stood at 0.708 nM, the koff amounted to 0.00251 s⁻¹ and the on-rate (kon) was determined as 3.54e+06 M⁻¹ s⁻¹.

B10: hu3D6VHv1bA11/L2-DIM13 (antibody, V domains shown)
VH: B1 VH
VL: B2 VL with L42Q, L55G, G57S
notes: as for B3
B10: in assay [3], the dissociation constant (Kd) amounted to 0.904 nM, the koff turned out to be 0.00285 s⁻¹ and the kon was 3.15e+06 M⁻¹ s⁻¹.

B11: hu3D6VHv1bA11/L2-DIM12 (antibody, V domains shown)
VH: B1 VH
VL: B2 VL with L42Q, G57S, L59D
notes: as for B3
For B11, in assay [3], the Kd came to 0.485 nM, the off-rate constant (koff) is 0.00133 s⁻¹ and the association rate constant (kon) was determined as 2.74e+06 M⁻¹ s⁻¹.

B12: h3D6VHvb8/L2-DIM8 (antibody, V domains shown)
VH: B1 VH with D61E
VL: B2 VL with L42Q, G57S
notes: Humanized antibody with human Fc; also called hu3D6VHv1bA11 D60E / hu3D6VLv2 L37Q
Turning to B12, in assay [3], the Kd amounted to 0.427 nM, the dissociation rate constant (koff) amounted to 0.0014 s⁻¹ and the kon was determined as 3.28e+06 M⁻¹ s⁻¹.

B13: hu3D6VHv1bA11/L2-DIM18 (antibody, V domains shown)
VH: B1 VH
VL: B2 VL with L42Q, L55D, G57S, L59R
notes: as for B3
With B13, in assay [3], the Kd stood at 2.51 nM, the koff was 0.00378 s⁻¹ and the kon was determined as 1.51e+06 M⁻¹ s⁻¹.

B14: hu3D6VHv1bA11/L2-DIM21 (antibody, V domains shown)
VH: B1 VH
VL: B2 VL with G57S, L59D
notes: Humanized antibody with human Fc; also called hu3D6VHv1bA11 / hu3D6VLv2 L54D
B14: in assay [3], the dissociation constant (Kd) is 0.696 nM, the off-rate constant (koff) came to 0.00149 s⁻¹ and the kon came to 2.15e+06 M⁻¹ s⁻¹.

B15: hu3D6VHv1bA11/L2-DIM7 (antibody, V domains shown)
VH: B1 VH
VL: B2 VL with G57S, L59G
notes: Humanized antibody with human Fc; also called hu3D6VHv1bA11 / hu3D6VLv2 L54G
As to B15, in assay [3], the Kd was determined as 0.281 nM, the dissociation rate constant (koff) is 0.000971 s⁻¹ and the kon was 3.46e+06 M⁻¹ s⁻¹.

B16: hu3D6VHv1bA11/L2-DIM4 (antibody, V domains shown)
VH: B1 VH
VL: B2 VL with L42Q, L59R
For B16, in assay [1], the IC50 is 0.423 nM. Also, the “EC50 (read off the curve)” value in assay [2] was around 0.7 nM. Also, in assay [3], the equilibrium dissociation constant (Kd) turned out to be 0.0948 nM, the koff was 0.000535 s⁻¹ and the association rate constant (kon) turned out to be 5.65e+06 M⁻¹ s⁻¹. In the assay with 4R tau fibrils, this molecule gave an EC50 of 0.192 nM.

B17: h3D6VHvb8/L2-DIM7 (antibody, V domains shown)
VH: B1 VH with D61E
VL: B2 VL with G57S, L59G
notes: Humanized antibody with human Fc; also called hu3D6VHv1bA11 D60E / hu3D6VLv2 L54G
For the molecule B17, in assay [3], the Kd was determined as 0.275 nM, the off-rate (koff) was 0.00119 s⁻¹ and the on-rate constant (kon) was 4.31e+06 M⁻¹ s⁻¹.

B18: h3D6VHvb8/L2-DIM4 (antibody, V domains shown)
VH: B1 VH with D61E
VL: B2 VL with L42Q, L59R
notes: as for B3
As for B18, in assay [3], the Kd was determined as 0.226 nM, the koff was 0.00102 s⁻¹ and the association rate constant (kon) stood at 4.51e+06 M⁻¹ s⁻¹.

B19: hu3D6VHv1bA11/L2-DIM17 (antibody, V domains shown)
VH: B1 VH
VL: B2 VL with L42Q, L55D, G57S, L59G
notes: as for B3
In the case of B19, the Kd in assay [3] was 1.03 nM.

B20: hu3D6VHv1bA11/L2-DIM19 (antibody, V domains shown)
VH: B1 VH
VL: B2 VL with L42Q, L55E, G57S, L59G
notes: as for B3
For B20, in assay [3], the Kd amounted to 1.79 nM and the off-rate (koff) was determined as 5.88 s⁻¹.

B21: 8A4 (antibody, V domains shown)
VH: EVQLQQSGAELVRPGALVKLSCKASGFNIKDYYIHWVKQRPEQGLEWIGWIDPENGDTVYDPQFQDKANITADTSSNTAYLQLSSLTSEGTAVYYCSTLDFWGQGTTLTVSS
VL: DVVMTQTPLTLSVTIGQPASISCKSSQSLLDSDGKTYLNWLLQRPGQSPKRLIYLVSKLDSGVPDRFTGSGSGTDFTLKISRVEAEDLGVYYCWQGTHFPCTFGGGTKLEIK
B21: in the assay with recombinant human tau, the dissociation constant (Kd) was 3.8 nM, the koff is 0.00227 s⁻¹ and the kon is 599000 M⁻¹ s⁻¹.

B22: 5G8 (antibody, V domains shown)
VH: EVQLQQSGAELVRSGASVRLSCTASGFNIKDYYMHWVRQRPEQGLEWIGWIDPENGDTVYAPKFQGKATMTSDTSSNTAYLHLSSLTSEDTAVYYCSPLDFWGQGTTLTVSS
VL: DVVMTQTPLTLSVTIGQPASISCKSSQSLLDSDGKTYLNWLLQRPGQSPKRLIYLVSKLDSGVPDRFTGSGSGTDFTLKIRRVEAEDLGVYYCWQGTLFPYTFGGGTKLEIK
On to B22, for which, in the assay with recombinant human tau, the dissociation constant Kd worked out at 6.78 nM, the off-rate (koff) amounted to 0.00254 s⁻¹ and the kon was found to be 375000 M⁻¹ s⁻¹.
